# Measured values from paper PMC5488163.
# Target: free 17K‐apo(a) variant (purified recombinant apolipoprotein(a) with 17 KIV domains) (human)
# Assay: co-IP
substance,measurement,value
"purified HCVcc, infectious hepatitis C virus particles (JFH1‐CS‐A4‐RLuc‐TM) (complex)",percent of HCV RNAs coimmunoprecipitated,39.9%
